{
  "source": "paper PMC7083227",
  "about": "(Immunity, 2020)",
  "proteins": {"B1": {"name": "HA-tagged BTN2A1 (surface biotinylation experiment) (natural protein, human, UniProt Q7KYR7 29-527, looked up)", "chain": "QFIVVGPTDPILATVGENTTLRCHLSPEKNAEDMEVRWFRSQFSPAVFVYKGGRERTEEQMEEYRGRTTFVSKDISRGSVALVIHNITAQENGTYRCYFQEGRSYDEAILHLVVAGLGSKPLISMRGHEDGGIRLECISRGWYPKPLTVWRDPYGGVAPALKEVSMPDADGLFMVTTAVIIRDKSVRNMSCSINNTLLGQKKESVIFIPESFMPSVSPCAVALPIIVVILMIPIAVCIYWINKLQKEKKILSGEKEFERETREIALKELEKERVQKEEELQVKEKLQEELRWRRTFLHAVDVVLDPDTAHPDLFLSEDRRSVRRCPFRHLGESVPDNPERFDSQPCVLGRESFASGKHYWEVEVENVIEWTVGVCRDSVERKGEVLLIPQNGFWTLEMHKGQYRAVSSPDRILPLKESLCRVGVFLDYEAGDVSFYNMRDRSHIYTCPRSAFSVPVRPFFRLGCEDSPIFICPALTGANGVTVPEEGLTLHRVGTHQSL", "modifications": "surface lysines biotinylated with EZ-Link Sulfo NHS-LC-biotin", "notes": "Butyrophilin-2A1 (BTN2A1), human; also called CHO-cell expressed BTN2A1; cell surface BTN2A1"}},
  "target": "the molecule itself",
  "experiment": "non-reducing and reducing SDS-PAGE after surface biotinylation and anti-HA immunoprecipitation; cells surface biotinylated, lysed in 1% NP40 ± 10 mM iodoacetamide, HA-tagged protein precipitated with anti-HA resin, blot with streptavidin-HRP; with or without BTN3A1, with or without Zol",
  "data": [
    {"protein": "B1", "values": [
      {"measurement": "stoichiometry N", "value": 2}
    ]}
  ]
}
